{"source": "paper doi:10.1101/2022.01.24.477625", "about": "(bioRxiv, 2022)", "binders": {"B1": {"name": "CV27 IgG (antibody, V domains shown)", "VH": "QVQLVESGGGVVQPGRSLRLSCAASGFTFSSYAMHWVRQAPGKGLEWVALISYDGSNKYYADSVKGRFTISRDNSKNTLYLQMNSLRAEDTAVYYCARSFGGSYYYGMDVWGQGTTVTVSS", "VL": "QSALTQPASVSGSPGQSITISCTGTSSDVGGYNYVSWYQQHPGKAPKLMIYDVSNRPSGVSNRFSGSKSGNTASLTISGLQAEDEADYYCSSYTSSSTPYVFGTGTKVTVL"}}, "target": "SARS-CoV-1 spike protein (FL-GCN4-Avi-His, biotinylated) (SARS-CoV-1 (SARS-CoV), strain , UniProt P59594, stabilised, biotin on the Avi tag)", "test": "BLI", "data": [{"binder": "B1", "values": [{"measurement": "binding result", "result": "binds"}]}]}
